In patent US20050112126A1 (Genentech, published 2005):
Positions count from the first letter of the chain named. Numbers in names are those of the source.

B1: pY0192 VH T55A (Fab, V domains shown)
VH: EVQLVESGGGLVQPGGSLRLSCAASGYTFTNYGINWVRQAPGKGLEWVGWINTYAGEPTYAADFKRRFTFSLDTSKSTAYLQMNSLRAEDTAVYYCAKYPHYYGSSHWYFDVWGQGTL
VL: DIQLTQSPSSLSASVGDRVTITCRANEQLSNYLNWYQQKPGKAPKVLIYFTSSLHSGVPSRFSGSGSGTDFTLTISSLQPEDFATYYCQQYSTVPWTFGQGTKVEIKR
notes: Ala-scan variant of pY0192; Fab on phage
B2: pY0192 VH T59A (Fab, V domains shown)
VH: B1 VH with A55T, T59A
VL: B1 VL
notes: as for B1
B3: pY0192 VH Y27A (Fab, V domains shown)
VH: B1 VH with Y27A, A55T
VL: B1 VL
notes: as for B1
B4: pY0192 VH Y54A (Fab, V domains shown)
VH: B1 VH with Y54A, A55T
VL: B1 VL
notes: as for B1
B5: pY0192 VH Y60A (Fab, V domains shown)
VH: B1 VH with A55T, Y60A
VL: B1 VL
notes: as for B1
B6: pY0192 VH Y102A (Fab, V domains shown)
VH: B1 VH with A55T, Y102A
VL: B1 VL
notes: as for B1
B7: pY0192 VH Y103A (Fab, V domains shown)
VH: B1 VH with A55T, Y103A
VL: B1 VL
notes: as for B1
B8: pY0192 VH Y109A (Fab, V domains shown)
VH: B1 VH with A55T, Y109A
VL: B1 VL
notes: as for B1
B9: pY0192 VL A25S (Fab, V domains shown)
VH: B1 VH with A55T
VL: B1 VL with A25S
notes: as for B1
B10: pY0192 VL E27A (Fab, V domains shown)
VH: B1 VH with A55T
VL: B1 VL with E27A
notes: as for B1
B11: pY0192 VL F50A (Fab, V domains shown)
VH: B1 VH with A55T
VL: B1 VL with F50A
notes: as for B1
B12: pY0192 VL H55A (Fab, V domains shown)
VH: B1 VH with A55T
VL: B1 VL with H55A
notes: as for B1
B13: pY0192 VL L29A (Fab, V domains shown)
VH: B1 VH with A55T
VL: B1 VL with L29A
notes: as for B1
B14: pY0192 VL L33A (Fab, V domains shown)
VH: B1 VH with A55T
VL: B1 VL with L33A
notes: as for B1
B15: pY0192 VL L54A (Fab, V domains shown)
VH: B1 VH with A55T
VL: B1 VL with L54A
notes: as for B1
B16: pY0192 VL N26A (Fab, V domains shown)
VH: B1 VH with A55T
VL: B1 VL with N26A
notes: as for B1
B17: pY0192 VL N31A (Fab, V domains shown)
VH: B1 VH with A55T
VL: B1 VL with N31A
notes: Ala-scan variant of pY0192; Fab on phage; also called N31A (VL)
B18: pY0192 VL N34A (Fab, V domains shown)
VH: B1 VH with A55T
VL: B1 VL with N34A
notes: as for B1

target: T1, VEGF (human, UniProt P15692-4 27-191, limits assumed); experiment: competitive phage-ELISA, relative to pY0192
T1 construct: Biotinylated in the KDR-IgG ELISA, amine-coupled to the chip in BIAcore; also called biotinylated VEGF; vascular endothelial growth factor
T1 sequence (P15692 other isoform, or with tags, fused parts or gaps limits assumed): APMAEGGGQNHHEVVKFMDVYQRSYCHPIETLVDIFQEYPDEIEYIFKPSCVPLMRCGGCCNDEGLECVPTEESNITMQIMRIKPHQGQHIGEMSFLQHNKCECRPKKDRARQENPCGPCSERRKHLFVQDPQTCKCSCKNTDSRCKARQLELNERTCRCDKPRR
Description: In such an assay, phages were first serially diluted to determine a fractional saturation titer which was then held constant and used to incubate with varying concentrations of VEGF (starting at 200 nM to 0 nM) in solution. The mixture was then transferred onto plate precoated with VEGF (2 μg/mL) and blocked with 5% instant milk, and allowed to equilibrate for 1 hour at room temperature. Thereafter, the phage solution was removed and the remaining bound phages were detected with a solution of rabbit anti-phage antibody mixed with goat anti-rabbit conjugate of horse radish peroxidase. After an hour incubation at room temperature, the plate was developed with a chromogenic substrate, o-phenylenediamine (Sigma). The reaction was stopped with addition of ½ volume of 2.5 M H₂SO₄. Optical density at 492 nm was measured on a spectrophotometric plate reader.
IC50's were determined in a competitive phage-ELISA assay.

Binder | IC50 (mut)/IC50 (wt)
B1 | 4 ratio
B2 | 3 ratio
B3 | 34 ratio
B4 | 9 ratio
B5 | 2 ratio
B6 | 4 ratio
B7 | 5 ratio
B8 | 19 ratio
B9 | 1 ratio
B10 | 1 ratio
B11 | 1 ratio
B12 | 1 ratio
B13 | 1 ratio
B14 | 2 ratio
B15 | 1 ratio
B16 | 1 ratio
B17 | 2 ratio
B18 | 4 ratio
